In patent US20240301076A1 (CEPHALON, published 2024):

T1: human CXCR2 (human, UniProt P25025 1-360)
T1 construct: also called CXC chemokine receptor 2; hCXCR2
T1 sequence: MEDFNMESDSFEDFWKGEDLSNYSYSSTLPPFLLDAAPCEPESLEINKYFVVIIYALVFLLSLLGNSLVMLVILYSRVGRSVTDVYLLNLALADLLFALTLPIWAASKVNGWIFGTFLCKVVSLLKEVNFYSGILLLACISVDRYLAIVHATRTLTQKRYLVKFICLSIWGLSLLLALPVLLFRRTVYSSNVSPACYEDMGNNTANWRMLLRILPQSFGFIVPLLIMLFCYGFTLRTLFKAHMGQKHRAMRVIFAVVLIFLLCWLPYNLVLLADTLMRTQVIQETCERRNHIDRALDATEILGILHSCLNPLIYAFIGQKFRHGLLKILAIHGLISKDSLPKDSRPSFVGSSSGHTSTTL


Molecular target: T1, human CXCR2
Test: flow cytometry, CXCR2-transfected Expi293F cells
Description: Harvested cells were resuspended in FACS buffer (1×PBS+0.5% (w/v) bovine serum albumin (BSA)+2 mM EDTA pH 7.2). Approximately 2×10⁵ cells were added per well in a 96-well round-bottomed plate. Cells were pelleted by centrifugation at 400 g for 5 mins at 4° C. and supernatants discarded. 25 μL of each test antibody or control antibody was added to the cells and incubated for 30 minutes at 4° C. Cells were washed twice in 100 μL FACS buffer followed by centrifugation at 400 g for 5 mins at 4° C.
For detection, 50 μL of secondary antibody (Table 2) was added to relevant samples. Commercially available antibodies that bound to transfected CXCR family members were used as positive controls to ensure that the cells were expressing the receptors. Cells were washed twice in 200 μL of FACS buffer followed by centrifugation at 400 g for 5 mins at 4° C. Before sample acquisition, cells were resuspended in 100 μL of FACS buffer. Samples were acquired using the high throughput sampler on a FACSCanto™ II cytometer (Beckton-Dickinson).
Each variant heavy chain was co-expressed with the parental light chain and vice versa.

| Binder | Fold change in binding relative to BKO-4A8 [fold] |
| --- | --- |
| BKO-4A8 variant VH G52aD (antibody, human IgG4 S228P, lambda, V domains shown, IgG4 S228P, lambda; parental light chain; also called 4A8 VH G52aD) VH: EVQLLESGGGLVQPGGSLRLSCAASGFTFSSSTMSWVRQAPGKGLEWVSAISDRGRNTYYADSVKGRFTISRDNSRNTLYLQMNSLRAEDTAVYYCAIQMGYWGQGILVTVSS VL: QSALTQPPSASGSPGQSVTISCIGTSSDVGGYNYVSWYQQHPDKAPKLMIYEVNKRPSGVPDRFSGSKSGNTASLTVSGLQAEDEADYYCSSYAGNNNFGVFGGGTKLTVLG | 1.18 |
| BKO-4A8 variant VL E50D (antibody, human IgG4 S228P, lambda, V domains shown, IgG4 S228P, lambda; parental heavy chain; also called 4A8 VL E50D) VH: EVQLLESGGGLVQPGGSLRLSCAASGFTFSSSTMSWVRQAPGKGLEWVSAISGRGRNTYYADSVKGRFTISRDNSRNTLYLQMNSLRAEDTAVYYCAIQMGYWGQGILVTVSS VL: QSALTQPPSASGSPGQSVTISCIGTSSDVGGYNYVSWYQQHPDKAPKLMIYDVNKRPSGVPDRFSGSKSGNTASLTVSGLQAEDEADYYCSSYAGNNNFGVFGGGTKLTVLG | 2 |
| BKO-4A8 variant VH S32Y (antibody, human IgG4 S228P, lambda, V domains shown, IgG4 S228P, lambda; parental light chain; also called 4A8 VH S32Y) VH: EVQLLESGGGLVQPGGSLRLSCAASGFTFSSYTMSWVRQAPGKGLEWVSAISGRGRNTYYADSVKGRFTISRDNSRNTLYLQMNSLRAEDTAVYYCAIQMGYWGQGILVTVSS VL: QSALTQPPSASGSPGQSVTISCIGTSSDVGGYNYVSWYQQHPDKAPKLMIYEVNKRPSGVPDRFSGSKSGNTASLTVSGLQAEDEADYYCSSYAGNNNFGVFGGGTKLTVLG | 1.33 |
| BKO-4A8 variant VH Y102K (antibody, human IgG4 S228P, lambda, V domains shown, IgG4 S228P, lambda; parental light chain; also called 4A8 VH Y102K) VH: EVQLLESGGGLVQPGGSLRLSCAASGFTFSSSTMSWVRQAPGKGLEWVSAISGRGRNTYYADSVKGRFTISRDNSRNTLYLQMNSLRAEDTAVYYCAIQMGKWGQGILVTVSS VL: QSALTQPPSASGSPGQSVTISCIGTSSDVGGYNYVSWYQQHPDKAPKLMIYEVNKRPSGVPDRFSGSKSGNTASLTVSGLQAEDEADYYCSSYAGNNNFGVFGGGTKLTVLG | 1.3 |
| BKO-4A8 variant VH Y102S (antibody, human IgG4 S228P, lambda, V domains shown, IgG4 S228P, lambda; parental light chain; also called 4A8 VH Y102S) VH: EVQLLESGGGLVQPGGSLRLSCAASGFTFSSSTMSWVRQAPGKGLEWVSAISGRGRNTYYADSVKGRFTISRDNSRNTLYLQMNSLRAEDTAVYYCAIQMGSWGQGILVTVSS VL: QSALTQPPSASGSPGQSVTISCIGTSSDVGGYNYVSWYQQHPDKAPKLMIYEVNKRPSGVPDRFSGSKSGNTASLTVSGLQAEDEADYYCSSYAGNNNFGVFGGGTKLTVLG | 1.5 |
| BKO-4A8 variant VH S32Q (antibody, human IgG4 S228P, lambda, V domains shown, IgG4 S228P, lambda; parental light chain; also called 4A8 VH S32Q) VH: EVQLLESGGGLVQPGGSLRLSCAASGFTFSSQTMSWVRQAPGKGLEWVSAISGRGRNTYYADSVKGRFTISRDNSRNTLYLQMNSLRAEDTAVYYCAIQMGYWGQGILVTVSS VL: QSALTQPPSASGSPGQSVTISCIGTSSDVGGYNYVSWYQQHPDKAPKLMIYEVNKRPSGVPDRFSGSKSGNTASLTVSGLQAEDEADYYCSSYAGNNNFGVFGGGTKLTVLG | 1.71 |
| BKO-4A8 variant VH S32H (antibody, human IgG4 S228P, lambda, V domains shown, IgG4 S228P, lambda; parental light chain; also called 4A8 VH S32H) VH: EVQLLESGGGLVQPGGSLRLSCAASGFTFSSHTMSWVRQAPGKGLEWVSAISGRGRNTYYADSVKGRFTISRDNSRNTLYLQMNSLRAEDTAVYYCAIQMGYWGQGILVTVSS VL: QSALTQPPSASGSPGQSVTISCIGTSSDVGGYNYVSWYQQHPDKAPKLMIYEVNKRPSGVPDRFSGSKSGNTASLTVSGLQAEDEADYYCSSYAGNNNFGVFGGGTKLTVLG | 0.86 |
| BKO-4A8 variant VH T33A (antibody, human IgG4 S228P, lambda, V domains shown, IgG4 S228P, lambda; parental light chain; also called 4A8 VH T33A) VH: EVQLLESGGGLVQPGGSLRLSCAASGFTFSSSAMSWVRQAPGKGLEWVSAISGRGRNTYYADSVKGRFTISRDNSRNTLYLQMNSLRAEDTAVYYCAIQMGYWGQGILVTVSS VL: QSALTQPPSASGSPGQSVTISCIGTSSDVGGYNYVSWYQQHPDKAPKLMIYEVNKRPSGVPDRFSGSKSGNTASLTVSGLQAEDEADYYCSSYAGNNNFGVFGGGTKLTVLG | 1.3 |
| BKO-4A8 variant VH S32W (antibody, human IgG4 S228P, lambda, V domains shown, IgG4 S228P, lambda; parental light chain; also called 4A8 VH S32W) VH: EVQLLESGGGLVQPGGSLRLSCAASGFTFSSWTMSWVRQAPGKGLEWVSAISGRGRNTYYADSVKGRFTISRDNSRNTLYLQMNSLRAEDTAVYYCAIQMGYWGQGILVTVSS VL: QSALTQPPSASGSPGQSVTISCIGTSSDVGGYNYVSWYQQHPDKAPKLMIYEVNKRPSGVPDRFSGSKSGNTASLTVSGLQAEDEADYYCSSYAGNNNFGVFGGGTKLTVLG | 0.83 |
| BKO-4A8 variant VH S32L (antibody, human IgG4 S228P, lambda, V domains shown, IgG4 S228P, lambda; parental light chain; also called 4A8 VH S32L) VH: EVQLLESGGGLVQPGGSLRLSCAASGFTFSSLTMSWVRQAPGKGLEWVSAISGRGRNTYYADSVKGRFTISRDNSRNTLYLQMNSLRAEDTAVYYCAIQMGYWGQGILVTVSS VL: QSALTQPPSASGSPGQSVTISCIGTSSDVGGYNYVSWYQQHPDKAPKLMIYEVNKRPSGVPDRFSGSKSGNTASLTVSGLQAEDEADYYCSSYAGNNNFGVFGGGTKLTVLG | 1.33 |
| BKO-4A8 variant VH M34W (antibody, human IgG4 S228P, lambda, V domains shown, IgG4 S228P, lambda; parental light chain; also called 4A8 VH M34W) VH: EVQLLESGGGLVQPGGSLRLSCAASGFTFSSSTWSWVRQAPGKGLEWVSAISGRGRNTYYADSVKGRFTISRDNSRNTLYLQMNSLRAEDTAVYYCAIQMGYWGQGILVTVSS VL: QSALTQPPSASGSPGQSVTISCIGTSSDVGGYNYVSWYQQHPDKAPKLMIYEVNKRPSGVPDRFSGSKSGNTASLTVSGLQAEDEADYYCSSYAGNNNFGVFGGGTKLTVLG | 1.17 |
| BKO-4A8 variant VH I51H (antibody, human IgG4 S228P, lambda, V domains shown, IgG4 S228P, lambda; parental light chain; also called 4A8 VH I51H) VH: EVQLLESGGGLVQPGGSLRLSCAASGFTFSSSTMSWVRQAPGKGLEWVSAHSGRGRNTYYADSVKGRFTISRDNSRNTLYLQMNSLRAEDTAVYYCAIQMGYWGQGILVTVSS VL: QSALTQPPSASGSPGQSVTISCIGTSSDVGGYNYVSWYQQHPDKAPKLMIYEVNKRPSGVPDRFSGSKSGNTASLTVSGLQAEDEADYYCSSYAGNNNFGVFGGGTKLTVLG | 1.8 |
| BKO-4A8 variant VH G101D (antibody, human IgG4 S228P, lambda, V domains shown, IgG4 S228P, lambda; parental light chain; also called 4A8 VH G101D) VH: EVQLLESGGGLVQPGGSLRLSCAASGFTFSSSTMSWVRQAPGKGLEWVSAISGRGRNTYYADSVKGRFTISRDNSRNTLYLQMNSLRAEDTAVYYCAIQMDYWGQGILVTVSS VL: QSALTQPPSASGSPGQSVTISCIGTSSDVGGYNYVSWYQQHPDKAPKLMIYEVNKRPSGVPDRFSGSKSGNTASLTVSGLQAEDEADYYCSSYAGNNNFGVFGGGTKLTVLG | 1 |
| BKO-4A8 variant VL K53D (antibody, human IgG4 S228P, lambda, V domains shown, IgG4 S228P, lambda; parental heavy chain; also called 4A8 VL K53D) VH: EVQLLESGGGLVQPGGSLRLSCAASGFTFSSSTMSWVRQAPGKGLEWVSAISGRGRNTYYADSVKGRFTISRDNSRNTLYLQMNSLRAEDTAVYYCAIQMGYWGQGILVTVSS VL: QSALTQPPSASGSPGQSVTISCIGTSSDVGGYNYVSWYQQHPDKAPKLMIYEVNDRPSGVPDRFSGSKSGNTASLTVSGLQAEDEADYYCSSYAGNNNFGVFGGGTKLTVLG | 1.4 |
| BKO-4A8 variant VL K53A (antibody, human IgG4 S228P, lambda, V domains shown, IgG4 S228P, lambda; parental heavy chain; also called 4A8 VL K53A) VH: EVQLLESGGGLVQPGGSLRLSCAASGFTFSSSTMSWVRQAPGKGLEWVSAISGRGRNTYYADSVKGRFTISRDNSRNTLYLQMNSLRAEDTAVYYCAIQMGYWGQGILVTVSS VL: QSALTQPPSASGSPGQSVTISCIGTSSDVGGYNYVSWYQQHPDKAPKLMIYEVNARPSGVPDRFSGSKSGNTASLTVSGLQAEDEADYYCSSYAGNNNFGVFGGGTKLTVLG | 1.4 |
| BKO-4A8 variant VH R53S (antibody, human IgG4 S228P, lambda, V domains shown, IgG4 S228P, lambda; parental light chain; also called 4A8 VH R53S) VH: EVQLLESGGGLVQPGGSLRLSCAASGFTFSSSTMSWVRQAPGKGLEWVSAISGSGRNTYYADSVKGRFTISRDNSRNTLYLQMNSLRAEDTAVYYCAIQMGYWGQGILVTVSS VL: QSALTQPPSASGSPGQSVTISCIGTSSDVGGYNYVSWYQQHPDKAPKLMIYEVNKRPSGVPDRFSGSKSGNTASLTVSGLQAEDEADYYCSSYAGNNNFGVFGGGTKLTVLG | 1 |
| BKO-4A8 variant VH M34D (antibody, human IgG4 S228P, lambda, V domains shown, IgG4 S228P, lambda; parental light chain; also called 4A8 VH M34D) VH: EVQLLESGGGLVQPGGSLRLSCAASGFTFSSSTDSWVRQAPGKGLEWVSAISGRGRNTYYADSVKGRFTISRDNSRNTLYLQMNSLRAEDTAVYYCAIQMGYWGQGILVTVSS VL: QSALTQPPSASGSPGQSVTISCIGTSSDVGGYNYVSWYQQHPDKAPKLMIYEVNKRPSGVPDRFSGSKSGNTASLTVSGLQAEDEADYYCSSYAGNNNFGVFGGGTKLTVLG | 1.6 |
| BKO-4A8 variant VH R53Q (antibody, human IgG4 S228P, lambda, V domains shown, IgG4 S228P, lambda; parental light chain; also called 4A8 VH R53Q) VH: EVQLLESGGGLVQPGGSLRLSCAASGFTFSSSTMSWVRQAPGKGLEWVSAISGQGRNTYYADSVKGRFTISRDNSRNTLYLQMNSLRAEDTAVYYCAIQMGYWGQGILVTVSS VL: QSALTQPPSASGSPGQSVTISCIGTSSDVGGYNYVSWYQQHPDKAPKLMIYEVNKRPSGVPDRFSGSKSGNTASLTVSGLQAEDEADYYCSSYAGNNNFGVFGGGTKLTVLG | 0.64 |
| BKO-4A8 variant VH G54D (antibody, human IgG4 S228P, lambda, V domains shown, IgG4 S228P, lambda; parental light chain; also called 4A8 VH G54D) VH: EVQLLESGGGLVQPGGSLRLSCAASGFTFSSSTMSWVRQAPGKGLEWVSAISGRDRNTYYADSVKGRFTISRDNSRNTLYLQMNSLRAEDTAVYYCAIQMGYWGQGILVTVSS VL: QSALTQPPSASGSPGQSVTISCIGTSSDVGGYNYVSWYQQHPDKAPKLMIYEVNKRPSGVPDRFSGSKSGNTASLTVSGLQAEDEADYYCSSYAGNNNFGVFGGGTKLTVLG | 1 |
